Results reported in IntAct's records for PubMed 19050261.

B1: Complement factor H (Homo sapiens), P08603 (parent)
chain: MRLLAKIICLMLWAICVAEDCNELPPRRNTEILTGSWSDQTYPEGTQAIYKCRPGYRSLGNVIMVCRKGEWVALNPLRKCQKRPCGHPGDTPFGTFTLTGGNVFEYGVKAVYTCNEGYQLLGEINYRECDTDGWTNDIPICEVVKCLPVTAPENGKIVSSAMEPDREYHFGQAVRFVCNSGYKIEGDEEMHCSDDGFWSKEKPKCVEISCKSPDVINGSPISQKIIYKENERFQYKCNMGYEYSERGDAVCTESGWRPLPSCEEKSCDNPYIPNGDYSPLRIKHRTGDEITYQCRNGFYPATRGNTAKCTSTGWIPAPRCTLKPCDYPDIKHGGLYHENMRRPYFPVAVGKYYSYYCDEHFETPSGSYWDHIHCTQDGWSPAVPCLRKCYFPYLENGYNQNYGRKFVQGKSIDVACHPGYALPKAQTTVTCMENGWSPTPRCIRVKTCSKSSIDIENGFISESQYTYALKEKAKYQCKLGYVTADGETSGSITCGKDGWSAQPTCIKSCDIPVFMNARTKNDFTWFKLNDTLDYECHDGYESNTGSTTGSIVCGYNGWSDLPICYERECELPKIDVHLVPDRKKDQYKVGEVLKFSCKPGFTIVGPNSVQCYHFGLSPDLPICKEQVQSCGPPPELLNGNVKEKTKEEYGHSEVVEYYCNPRFLMKGPNKIQCVDGEWTTLPVCIVEESTCGDIPELEHGWAQLSSPPYYYGDSVEFNCSESFTMIGHRSITCIHGVWTQLPQCVAIDKLKKCKSSNLIILEEHLKNKKEFDHNSNIRYRCRGKEGWIHTVCINGRWDPEVNCSMAQIQLCPPPPQIPNSHNMTTTLNYRDGEKVSVLCQENYLIQEGEEITCKDGRWQSIPLCVEKIPCSQPPQIEHGTINSSRSSQESYAHGTKLSYTCEGGFRISEENETTCYMGKWSSPPQCEGLPCKSPPEISHGVVAHMSDSYQYGEEVTYKCFEGFGIDGPAIAKCLGEKWSHPPSCIKTDCLSLPSFENAIPMGEKKDVYKAGEQVTYTCATYYKMDGASNVTCINSRWTGRPTCRDTSCVNPPTVQNAYIVSRQMSKYPSGERVRYQCRSPYEMFGDEEVMCLNGNWTEPPQCKDSTGKCGPPPPIDNGDITSFPLSVYAPASSVEYQCQNLYQLEGNKRITCRNGQWSEPPKCLHPCVISREIMENYNIALRWTAKQKLYSRTGESVEFVCKRGYRLSSRSHTLRTTCWDGKLEYPTCAKR

Variants of: B1
Conditions: with ptx3_human PTX3, P26022
Chain of ptx3_human PTX3, P26022 (P26022 whole entry): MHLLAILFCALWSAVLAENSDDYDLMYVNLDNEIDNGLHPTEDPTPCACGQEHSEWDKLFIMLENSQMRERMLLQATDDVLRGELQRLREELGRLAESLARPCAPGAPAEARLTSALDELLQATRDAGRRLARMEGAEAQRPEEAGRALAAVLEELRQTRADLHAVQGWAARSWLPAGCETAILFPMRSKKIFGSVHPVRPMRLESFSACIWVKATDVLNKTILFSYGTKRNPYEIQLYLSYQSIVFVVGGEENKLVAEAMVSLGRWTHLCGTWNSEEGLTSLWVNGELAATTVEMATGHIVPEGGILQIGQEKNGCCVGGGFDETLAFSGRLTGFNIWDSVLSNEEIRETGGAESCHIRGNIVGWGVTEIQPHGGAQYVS

Variant | effect of a mutation on the interaction
Y402H | with no effect
